Assay [1] concerns the target bovine apomucin (deglycosylated bovine submaxillary mucin) (bovine).
Assay [2] deals with serine containing acceptor peptide ….
Assay [3] shares this target. The source holds these as a separate data set.
The target of assay [4] is bovine apomucin (deglycosylated bovine submaxillary mucin) (bovine). The source holds these as a separate data set.

Like-named read-outs stand apart in the source and are kept apart here.

By Km is commonly meant the substrate concentration at which the rate is half of its maximum. “soluble, secreted recombinant bovine GalNAc-transferase GalNAcTs (enzyme)” had a specific activity of the purified enzyme preparation in assay [1] of 2160 U/mg protein. The Km turned out to be 3.6 mM in assay [2] and 3.5 mM in assay [3].
Take “cloned full-length (membrane bound) bovine GalNAc-transferase expressed in Sf9 cells (enzyme)”: the Total activity (U), cell lysate in assay [4] was 16.2 U.

The record behind these values is patent publication US6096512.
